Measurements from the nanobody polyreactivity screen of Harvey et al. (2022).

Assay: yeast display, Sf9 membrane polyspecificity reagent, FACS + sequencing; frameworks hold sequencing errors
Summary of the method: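 Using colony PCR, genes from sorted yeast display clones were amplified, then sequenced on MiSeq at 2 × 250 and filtered by CDR length. The clones had been stained with 10% biotinylated, detergent-solubilized Sf9 membrane reagent for 1 hour at 4 °C and sorted by FACS into low and high (top ~1%) gates on anti-HA and streptavidin fluorescence. Polyreactivity labels come from the gate of origin.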

Sequence | polyreactivity (PSR sort gate)
QVQLVESGGGLVQAGGSLRLSCAASGRTFPQNAMGWYRQAPGKERELVAAISRSGGRTYYADSVKGRFTISRDNAKNTVYLQMNSLKPEDTAVYYCNTDPRYPRYDYSGQGTQVTVSS | high polyreactivity
QVQLVESGGGLVQAGGSLRLSCAASGRTFPRYAMGWYRQARGKEREMVAAISGTGGSTYYADSVKGRFTISRDNAKNTFYLQMNSLKPEDTAVYYCAAAFRDGFTRRYGYWGQGTQVTVSS | high polyreactivity
QVQLVESGGGLVQAGGSLRLSCAASGRTFPRYGMGWYRQAPVKERELVATIRTGGRTNYADSVKGRFTISRDNAKNTVYVLMNSQKPEDTAVYYCATDSSKHPYSPTLLKFDYWGQGTQVTVSS | low polyreactivity
QVQLVESGGGLVQAGGSLRLSCAASGRTFPRYTMGRYRQAPRKERELVAASATGGSTNYADSVKGRFTISRDNAKNTVYLHMNSLKPEDTAVYYCAARPYSNRYVLGVYYWGKGTQVTVSS | high polyreactivity
QVQLVESGGGLVQAGGSLRLSCAASGRTFPRYVMGWYRQAPGKERDLVAAIRRSGGSTYYADSVKGRFTISRDNAKNTVYLQMNSLKPDDTAVYYCNRVVYTYISTGSRHGRYYYWGQGTQVTVSS | high polyreactivity
QVQLVESGGGLVQAGGSLRLSCAASGRTFPSYTMGWYRQAPGKERELVAAITWTGGSTYYADSVKGRFTISRDNAKNSVYLQMNCLKPEDTAVYYCADDDYWGQGTQVTVSS | low polyreactivity
QVQLVESGGGLVQAGGSLRLSCAASGRTFPTYTMGWYRQAPGQERELVAAITRGGSTKYADSVKGRFTISRDNAKNTVYLQMNSLKPEDTAVYYCAAVYRYRHSFAYYRHEMDYWGQGTQVTVSS | low polyreactivity
QVQLVESGGGLVQAGGSLRLSCAASGRTFPVNGMGWYRQAPGKERELVAAITGGGSTNYADSVKGRFTITRDNAKNTVYLQMNSLKPEDTAVYYCAAGSYSRYLYSLYFDFDYWGQGTQVTVSS | low polyreactivity
QVQLVESGGGLVQAGGSLRLSCAASGRTFPVYAMGRYRPAPGKERELVAAISWSGGTTYYADSVPGRFTISRDNAKNTVYLQKHSLKPEDTAVYFCAARFGVRRRYDYWGQGTQVTVSS | high polyreactivity
QVQLVESGGGLVQAGGSLRLSCAASGRTFPVYAMGWYRQAPGKERELVAAIRARSVRTYYADSVKGRFTISRDNAKNTVYLQMNSLKPEDTAVYYCAAYYLNPGMDYWGQGTQVTVSS | high polyreactivity
QVQLVESGGGLVQAGGSLRLSCAASGRTFPVYSMGWYRQAPGKERELVDVITTRVTSTYYADSVKGRFTISRDNAKNSVYLQMNSLKPEDTAVYYCNARTAYTGNYGPPKGGYWGQGTQVTVSS | high polyreactivity
QVQLVESGGGLVQAGGSLRLSCAASGRTFPWKVMGWYRQPPGKERELVAAITRSGGSTYYADSVKGRFTISRDNAKNTVYLQMNSLKQEDTAVYYCAKRGYTSSRRWIYDYWGQGTQVTVSS | high polyreactivity
QVQLVESGGGLVQAGGSLRLSCAASGRTFPWYTMGWYRQAPGKERELVAAISWSGGSTFYADSVKGRFTISRDNAKNTVYLQMNSLKPEDTAVYYCAARSRPTVQRGYAYGYWGQGTQVTVSS | low polyreactivity
QVQLVESGGGLVQAGGSLRLSCAASGRTFPYNAMGWSRQAPGKERELVAVISSGGGRTYYADSVKGRFTISRDNAKNTVYLQMNSLKPEDTAVYYCNKGGYAIRYDYYWGQGTQVTVSS | high polyreactivity
QVQLVESGGGLVQAGGSLRLSCAASGRTFPYNAMGWYRQAPGKEMELVAAITKSAGRTYYAYSVKGRFTISRDNAKNTVYLQMNSLKPEDTAVYYCNTVTVAYGYTRLYAQYYYWGQGTQVTVSS | high polyreactivity
QVQLVESGGGLVQAGGSLRLSCAASGRTFPYNAMGWYRQAPGKERELVAAISSGGSTNYADSVKGRFTITRDNAKKTVYLQRNSLKPEDTAVYYCAVTGWPRYTWYSYGYWGQGTQVTVSS | low polyreactivity
QVQLVESGGGLVQAGGSLRLSCAASGRTFPYNAMGWYRQAPGKERELVAVISSSGGSTYYADSVKGRFTISRDNAKNTVYLQMNSLKPEDTAVYYCNTRPYYYRRPGYRYSGYDYWGQGTQVTVSS | high polyreactivity
QVQLVESGGGLVQAGGSLRLSCAASGRTFPYNVMGWYRQAPRKERELVAAITYDGGNTYYADSVKGRFTISRDNAKNTVYLQMNSLKPEDTAVYYCARPLTYYDEFDSWGQGTQVTVSS | low polyreactivity
QVQLVESGGGLVQAGGSLRLSCAASGRTFPYYAMGWYRQAPGKEMELVAAISSSGGRTYYADSVKGRFTISRDNAKNTVYLQMNSLKPEDTAVYYCNAESTYYPSGEDYWGQGTQVTVSS | low polyreactivity
QVQLVESGGGLVQAGGSLRLSCAASGRTFPYYAMGWYRQAPGKEREFVAGISRTGGSTYYADSVKGRFTISRDNAKNTVYLQMNSLKPEDTAVYYCNAPYILTQQGGRRYDYWGQGTQVTVSS | high polyreactivity
QVQLVESGGGLVQAGGSLRLSCAASGRTFPYYAMGWYRQAPGKETELVASISYRGGNTYYADSVKGRFTISRDNAKNTVYLQMNSQKPEDTAVYYCAKTGRYSARDDYWGQGTQVTVSS | high polyreactivity
QVQLVESGGGLVQAGGSLRLSCAASGRTFPYYDKGWYRQAPGKERELVATISWSGGTTYADSVKGRFTISRDNAKNTVYLQMNSLKPEDTAVYFCAAVSYVYRYYWGQGTQVTVSS | low polyreactivity

Sequence | polyreactivity (PSR sort gate)
QVQLVESGGGLVQAGGSLRLSCAASGRTFQDNAMGWSRQEPGKERELVAAISWRGGSTNYADSVKGRFTISRDNAKNTVFLQLNSLKPEDTAVYYCNRDPRKYGKLDYWGQGTQVTVSS | low polyreactivity
QVQLVESGGGLVQAGGSLRLSCAASGRTFQDNAMGWYRQAPGKERELVAAMSWRGGSTNYADSVKGRFTISRDNAKNTVYLQMKSLKPEDTAVYYCYRDQRKYGKLDYWVQGTQVTVSS | low polyreactivity
QVQLVESGGGLVQAGGSLRLSCAASGRTFQFYAMGWYRQAPGKERELVAAITYSGDSTYYADSVKGRFTISRDNAKNTVYLQMNSLKPEDTAVYYCAAGVWFYWYEYDYWGQGTQVTVSS | high polyreactivity
QVQLVESGGGLVQAGGSLRLSCAASGRTFQFYVMGWYRQAPGKERELVASIRSGGSTNYADSVKGRFTISRDNAKNTVYLQMNSLKPEDTAVYYFAARVASPYYRYDFWGQGTQVTVSS | low polyreactivity
QVQLVESGGGLVQAGGSLRLSCAASGRTFQKNTMGWYRQPPGKERELVAAIDYSATTTYYADSVKGRFTSSRDTAKNTVYLQMNSLKPEDTAVYYCAARWSYPRWEFDYWGQGTQVTVTS | high polyreactivity
QVQLVESGGGLVQAGGSLRLSCAASGRTFQLNAMGWYRQAPGKERELVAAISTRGGSTYYADSVKGRFTISRDNAKNTVYLQMNRLKPEDTAVYYCAAVTKTLYRSYFLMYYWGQGTQVTVSS | high polyreactivity
QVQLVESGGGLVQAGGSLRLSCAASGRTFQLNAMGWYRQGPGNERELVAAISTRGGSTYYADSVKGRFTISRDNAKNTVYLQMNSLKPEDTAVYYCAKDPSFTRGYKEGGGYDYWGQGTQVTVSS | high polyreactivity
QVQLVESGGGLVQAGGSLRLSCAASGRTFQLYAMGWYRQAPGKEMELVAAISTRGGSTYYADSVKGRFTISRDNAKNTVYLLMNSLKPEDTAVYYCAKDPSFTRGYKEGGGYDYWGQGTQVNVSS | high polyreactivity
QVQLVESGGGLVQAGGSLRLSCAASGRTFQRYTMGWYRQAPGKERELVASISRSGGSTYYADSVKGRFTISRDNAKNTVYLQMNSLKPEDTAVYYCATRSLFWNRNHYRVSSPVLYDYWGQGTQVTVSS | high polyreactivity
QVQLVESGGGLVQAGGSLRLSCAASGRTFQSYAMGWYRQEPGKERELVAAITITGGRTYYADSVKGRFTISRDNAKNTVYLQMNSLKPEDTAVYYCAAEEYSHYTLGYVYWGQGTQVTVSS | low polyreactivity
QVQLVESGGGLVQAGGSLRLSCAASGRTFQTNAMGWYRQAPGKERELVAAISSTGGSTYYADSVKGRFTISRDNAKNTVYLQMNRLKPEDTAVYYCNAGRTYRYDYWGQGTQVTVSS | high polyreactivity
QVQLVESGGGLVQAGGSLRLSCAASGRTFQTNAMGWYRQAPGKERELVAAISWSGGRTYYADSVKGRFTISRDNAKNTVYLQMNSLKPEDTAVYYCAARQWYRYKVRFDYCGQGTQVTVSS | high polyreactivity
QVQLVESGGGLVQAGGSLRLSCAASGRTFQVNAMGWYRQAPGKERELVAGITQRAGSTYYADSVKGRFTISRDNAKNTVYLQMNSLKPEDTAVYYCAAQDVHLWYENYYWGQGTQVTVSS | low polyreactivity
QVQLVESGGGLVQAGGSLRLSCAASGRTFQWYAMGWYRQAPGKERELVAAIRYSAGSTYYADSVKGRFTISRDHAKNTVYLQMNSLKREDTAVYYCAAEPYPYGPYYFLWLRYDYWGQGTQVTVSS | low polyreactivity
QVQLVESGGGLVQAGGSLRLSCAASGRTFQWYAMGWYRQAPGKERELVAAITSGGNTYYADSVKGRFTISRDNAKNTVYLQMNSLKPEDTAVYYCFLFYSRSMGYWGQGTQVTVSS | high polyreactivity
QVQLVESGGGLVQAGGSLRLSCAASGRTFQWYAMGWYRQAPGKERELVAGISFSGGSTYYADSVKGRFTISRDNAKNTVYLQMNSLKPEDTAVYYCAARRFSPGSSGHGYWGQGTQLTVSS | high polyreactivity
QVQLVESGGGLVQAGGSLRLSCAASGRTFQYNAMGWYRLAPGKERELVAAISSGGSTYYADSVKGRFSISRDNAKNTVYLQMNSLKPEDTAVYYCATYLAEYGYWGQGTQVTVSS | high polyreactivity
QVQLVESGGGLVQAGGSLRLSCAASGRTFQYNAMGWYRQAPGKERELVAAISSYGGSTYYADSVKGRFTISRDNAKNTVYLQMNSLKPEDTAVYYCNAYSQSWNFYGDGDDWGQGTQVTVSS | low polyreactivity
QVQLVESGGGLVQAGGSLRLSCAASGRTFQYNAMGWYRQAPGKERELVAAISWSDGITYYADSVKGSFTISRDNAKNTVYLQMNSLKPEDTAVYYCAAEGYGLSYYFPYDFWGQGTQVTVSS | high polyreactivity
QVQLVESGGGLVQAGGSLRLSCAASGRTFQYNAMGWYRQAPGKQWELVAAISSSGGSTYYADSVKGRFTISRDNAKITVYLKMNSLKPEDTAVYYCNAYSQSWNFYGDGDYWGQGTQVTVSS | low polyreactivity
QVQLVESGGGLVQAGGSLRLSCAASGRTFQYYAMGWYRQAPGKERELGAAISGIGTSTSYADSVKGRFTISRDNAKNTVYLQMNSLKPEDTAVYYCAARLLVPGSPWYTNYYWGQGTQVTVSS | low polyreactivity
